Assay results published in doi:10.1101/2024.08.12.607668 (bioRxiv, 2024).
Where “and” joins values, the source holds several entries; their conditions need not be identical. Equal entries are not always repeated. Where two headings read alike, the source gives them in different places.

B1: AbrB from B. subtilis 168, full-length, His6-tagged (natural protein, UniProt P08874 1-96, looked up)
chain: MFMKSTGIVRKVDELGRVVIPIELRRTLGIAEKDALEIYVDDEKIILKKYKPNMTCQVTGEVSDDNLKLAGGKLVLSKEGAEQIISEIQNQLQNLK

Assays:
[1] = molecular target: full-length AbrB; assay: SPR
[2] = molecular target: AbrB from B. amyloliquefaciens FZB45, full-length, His6-tagged (B. amyloliquefaciens FZB45); assay: SEC
[3] = molecular target: the molecule itself; assay: SEC
[4] = molecular target: AbrB from B. amyloliquefaciens FZB45, full-length, His6-tagged (B. amyloliquefaciens FZB45); assay: SPR
[5] = molecular target: AbrB from B. amyloliquefaciens FZB45, full-length, His6-tagged (B. amyloliquefaciens FZB45); assay: SPR; remark: listed apart in the source
[6] = molecular target: AbrB from B. amyloliquefaciens FZB45, full-length, His6-tagged (B. amyloliquefaciens FZB45); assay: SPR; remark: listed apart in the source
[7] = molecular target: AbrB from B. amyloliquefaciens FZB45, full-length, His6-tagged (B. amyloliquefaciens FZB45); assay: native gel or EMSA
[8] = molecular target: T1, Truncated AbrB, N-terminal DNA-binding domain (AbrBN) from B. subtilis 168, His6-tagged (B. subtilis 168); assay: SPR
T1 sequence (P08874 whole entry, looked up): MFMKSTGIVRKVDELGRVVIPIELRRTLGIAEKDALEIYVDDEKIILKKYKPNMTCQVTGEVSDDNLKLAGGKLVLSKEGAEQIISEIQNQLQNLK

[9] = molecular target: B1; assay: SPR
[10] = molecular target: B1; assay: native gel or EMSA
[11] = molecular target: the molecule itself; assay: SAXS

AbbA
ka1 (two-state reaction model, first reaction) [1]: 132000 M⁻¹ s⁻¹ and 158000 M⁻¹ s⁻¹
kd1 (two-state reaction model, first reaction) [1]: 0.0955 s⁻¹ and 0.157 s⁻¹

AbrB from B. amyloliquefaciens FZB45, full-length, His6-tagged (natural protein)
stoichiometry N [2]: 4

B1
stoichiometry N [3]: 4

B2: AbbA from B. amyloliquefaciens FZB45 as run on analytical FPLC (natural protein, UniProt A0A9P1JGI2 1-63, looked up)
chain: MSLIGERFTEEEQKLLLNILINHEYAIELLTSEINDIEAGSKSVDGTTYKKLVTLYDRFRNEN
stoichiometry N [3]: 2
Kd [4]: 1140 nM and 1240 nM
KD1 (two-state reaction model, first reaction) [5]: 791 nM
Kd [5]: 68.9 nM
Kd [6]: 31.4 nM
stoichiometry N (AbbA dimers per AbrB tetramer) [7]: 2

B3: AbrB antirepressor AbbA from B. subtilis 168, His6-tagged (natural protein, UniProt O31697 1-65, looked up)
chain: MRMSLIGERFTEEEQKLLLNILINHEYAIELLSSEINDIETGTKNVDGTTYKKLVTLYDRFRFEN
Kd [8]: 3700 nM
Kd [9]: 448 nM
stoichiometry N [10]: ~2 AbbA dimers per AbrB tetramer

B4: AbbA from B. subtilis 168 as run on analytical FPLC (natural protein, UniProt O31697 1-65, looked up)
chain: MRMSLIGERFTEEEQKLLLNILINHEYAIELLSSEINDIETGTKNVDGTTYKKLVTLYDRFRFEN
stoichiometry N [3]: 2

B5: Full-length AbrB as measured by SAXS (natural protein)
chain: MKSTGIVRKVDELGRVVIPIELRRTLGIAEKDALEIYVDDEKIILKKYKPNMTCQVTGEVSDDNLKLAGGKLVLSKEGAEQIISEIQNQLQNLK
stoichiometry N [11]: 4
